This data set deals with the molecule itself. The data set is described as follows: nondenaturing SDS-PAGE or size exclusion chromatography (self-association). On the technique in general: In gel filtration, larger molecules generally elute earlier.

Description: For nondenaturing SDS-PAGE, one μg of each purified DsRed variant or wild-type DsRed was mixed with SDS-containing sample buffer on ice and immediately electrophoresed at 4° C. in a 10% polyacrylamide gel, followed by staining with Coomassie Blue. Additional aliquots of wild-type DsRed and DsRed variants were denatured by boiling prior to electrophoresis.

B1: DsRed.M1 (other)
chain: MDNTEDVIKEFMQFKVRMEGSVNGHYFEIEGEGEGKPYEGTQTAKLQVTKGGPLPFAWDILSPQFQYGSKAYVKHPADIPDYMKLSFPEGFTWERSMNFEDGGVVEVQQDSSLQDGTFIYKVKFKGVNFPADGPVMQKKTAGWEPSTEKLYPQDGVLKGEISHALKLKDGGHYTCDFKTVYKAKKPVQLPGNHYVDSKLDITNHNEDYTVVEQYEHAEARHSGSQ
notes: Purified protein tested for its oligomeric state; also called monomeric DsRed variant; red fluorescent DsRed monomer
Regarding B1, the binding result was “no binding”.
